Substitutions are numbered along the chain they refer to.
Legend:
Settings in all cases: protein: recombinant; tags: C-terminal SS-his6-GG-ald6 (LCTPSR); chain copies: 2; blunt, one internal G/T mismatch
[1] = target: T1, EcMutS-his6/ald6, AF647-labeled (Escherichia coli, UniProt P23909 1-853); assay: SPR; kon 3.44e5 M-1 s-1; koff 8.93e-4 s-1; koff with ATP 0.26 s-1; SPR at 25 C, buffer not shown; EMSA: 25 mM Hepes (GS Buffer, rest not shown), on ice 15 min
T1 sequence: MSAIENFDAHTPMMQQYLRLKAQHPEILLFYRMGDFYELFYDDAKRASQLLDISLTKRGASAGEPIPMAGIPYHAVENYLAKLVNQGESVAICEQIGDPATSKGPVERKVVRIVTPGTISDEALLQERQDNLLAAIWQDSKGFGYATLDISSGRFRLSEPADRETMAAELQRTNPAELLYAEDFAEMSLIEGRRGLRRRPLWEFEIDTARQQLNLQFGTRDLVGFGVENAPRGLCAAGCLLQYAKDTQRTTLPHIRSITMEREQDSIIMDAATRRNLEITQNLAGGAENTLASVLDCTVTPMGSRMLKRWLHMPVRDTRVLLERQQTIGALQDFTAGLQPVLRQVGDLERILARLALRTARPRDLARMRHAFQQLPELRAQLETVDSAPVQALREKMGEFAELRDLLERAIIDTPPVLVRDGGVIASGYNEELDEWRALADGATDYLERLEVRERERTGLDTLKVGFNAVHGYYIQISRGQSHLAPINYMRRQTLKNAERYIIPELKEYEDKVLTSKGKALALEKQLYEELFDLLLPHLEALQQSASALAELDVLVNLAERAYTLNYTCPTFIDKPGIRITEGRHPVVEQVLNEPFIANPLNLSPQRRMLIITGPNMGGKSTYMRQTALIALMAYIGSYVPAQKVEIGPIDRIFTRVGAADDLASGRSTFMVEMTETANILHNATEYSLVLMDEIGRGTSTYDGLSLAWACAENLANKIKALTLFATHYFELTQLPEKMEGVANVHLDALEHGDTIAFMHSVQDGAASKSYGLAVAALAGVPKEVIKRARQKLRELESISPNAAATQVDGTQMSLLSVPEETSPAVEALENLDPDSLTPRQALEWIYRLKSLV

[2] = target: T2, EcMutS-his6/ald6, unlabeled (Escherichia coli, UniProt P23909 1-853); assay: SPR; kon 5.29e5 M-1 s-1; koff 6.10e-4 s-1; koff with ATP 0.53 s-1; SPR at 25 C, buffer not shown; EMSA: 25 mM Hepes (GS Buffer, rest not shown), on ice 15 min
T2 sequence: T1 sequence

[3] = target: T3, EcMutS-his6/ald6(D835R,R840E), AF555-labeled (Escherichia coli, UniProt P23909 1-853, D835R;R840E); assay: SPR; kon 4.37e5 M-1 s-1; koff 24.48e-4 s-1; koff with ATP 0.45 s-1; SPR at 25 C, buffer not shown; EMSA: 25 mM Hepes (GS Buffer, rest not shown), on ice 15 min
T3 sequence: T1 sequence with D835R, R840E

[4] = target: T4, EcMutS-his6/ald6(D835R,R840E), unlabeled (Escherichia coli, UniProt P23909 1-853, D835R;R840E); assay: SPR; kon 9.48e5 M-1 s-1; koff 33.02e-4 s-1; koff with ATP 0.48 s-1; SPR at 25 C, buffer not shown; EMSA: 25 mM Hepes (GS Buffer, rest not shown), on ice 15 min
T4 sequence: T1 sequence with D835R, R840E

B1: G/T mismatch DNA (SPR) (dsDNA)
DNA 1: AACTATAGGGCGAATTGGGTACCGCTGAATTGCACCGAGCTTGATCCTCGATGATCCTAAGCTAAGCTTCAGCTCCAGCTTT
DNA 2: AAAGCTGGAGCTGAAGCTTAGCTTAGGATCATCGAGGATCGAGCTCGGTGCAATTCAGCGGTACCCAATTCGCCCTATAGTT
Kd [1]: 2.63 ± 0.49 nM
Kd [2]: 1.25 ± 0.53 nM
Kd [3]: 5.75 ± 1.51 nM
Kd [4]: 3.85 ± 1.78 nM

— PMC4652282, “An Efficient Site-Specific Method for Irreversible Covalent Labeling of Proteins with a Fluorophore”
